Details in all cases: 20 nM; 72 h
The subject of data set [1] is MCF10A. The experiment in a line: percent viability (nuclei count relative to siNT); higher = more viable cells. The method, then: (§1)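 After 72 h, cells were fixed and stained with Hoechst and anti-fibrillarin, and nucleoli per nucleus were counted with CellProfiler. Values are plate-adjusted percent effect for the one-nucleolus and 5+ nucleoli phenotypes, normalised to siNT (0%) and to the positive controls siNOL11 or siKIF11 (100%), as the mean of biological triplicates. Percent viability is the nuclei count relative to siNT.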

In data set [2] the test system is MCF10A. The experiment in a line: 5+ nucleoli phenotype percent effect (relative to siNT 0% and siKIF11 100%); higher = more cells with five or more nucleoli. As for the experimental part:
as §1

Data set [3] deals with MCF10A. The experiment in a line: one-nucleolus phenotype percent effect (relative to siNT 0% and siNOL11 100%); higher = more cells with one nucleolus (ribosome biogenesis inhibition). As for the experimental part: as §1

The source of these data is the supplement of paper PMC10899765.

Turning to “UGCCCUGCAUGGUGUCCCCACAG [hsa-miR-6799-3p]”, the percent viability in the data set on MCF10A [1] came out at 41.1%. Moreover, in the data set with MCF10A [2], the “5+ nucleoli phenotype percent effect” value was -1.27%. Besides, in the data set on MCF10A [3], the “one-nucleolus phenotype percent effect” value was 6.43%.
On to “UGCCCUGCCUGUUUUCUCCUUU [hsa-miR-3173-5p]”, for which the percent viability in the data set on MCF10A [1] stood at 148%. In addition, the “5+ nucleoli phenotype percent effect” value in the data set on MCF10A [2] came out at 35.2%. In the data set on MCF10A [3], the “one-nucleolus phenotype percent effect” value is -24.3%.
UGCCCUUAAAGGUGAACCCAGU [hsa-miR-938]: in the data set with MCF10A [1], the percent viability turned out to be 57.4%. In addition, the “5+ nucleoli phenotype percent effect” value in the data set with MCF10A [2] turned out to be 6.12%. The “one-nucleolus phenotype percent effect” value in the data set with MCF10A [3] was determined as 6.19%.
The corresponding values for UGCCCUUCUCUCCUCCUGCCU [hsa-miR-6886-3p] are 35.2%, -2.46% and -6.37%.
The matching figures for “UGCCGCCCUCUCGCUGCUCUAG [hsa-miR-4632-3p]”: 64.2%, -6.54% and 7.5%.
Take “UGCCUACUGAGCUGAAACACAG [hsa-miR-24-2-5p]”: the percent viability in the data set on MCF10A [1] came to 46.7%. For the same sequence, in the data set on MCF10A [2], the “5+ nucleoli phenotype percent effect” value was -9.36%. The “one-nucleolus phenotype percent effect” value in the data set with MCF10A [3] was 7.59%.
The corresponding values for “UGCCUACUGAGCUGAUAUCAGU [hsa-miR-24-1-5p]” are 49.2%, -18% and 3.46%.
The matching figures for UGCCUAGGCUGAGACUGCAGUG [hsa-miR-3135a]: 25.7%, 1.84% and 2.6%.
UGCCUCCCUGACAUUCCACAG [hsa-miR-6778-3p]: the percent viability in the data set on MCF10A [1] was 7.57%. The “5+ nucleoli phenotype percent effect” value with MCF10A [2] is -21%. Moreover, in the data set on MCF10A [3], the “one-nucleolus phenotype percent effect” value worked out at 10.1%.
Take UGCCUCCUCCGUGGCCUCAG [hsa-miR-6829-3p]: the percent viability in the data set with MCF10A [1] amounted to 22.7%. In the data set with MCF10A [2], the “5+ nucleoli phenotype percent effect” value is -1.77%. In addition, the “one-nucleolus phenotype percent effect” value in the data set on MCF10A [3] worked out at 0.866%.
In the case of UGCCUCCUUGGUCUCCGGCAG [hsa-miR-6791-3p], in the data set on MCF10A [1], the percent viability turned out to be 22.2%. Further, the “5+ nucleoli phenotype percent effect” value in the data set on MCF10A [2] is -9.62%. In the data set on MCF10A [3], the “one-nucleolus phenotype percent effect” value was -3.74%.
The matching figures for “UGCCUCUUUUCCACGGCCUCAG [hsa-miR-6781-3p]”: 38.9%, 2.23% and -1.18%.
UGCCUGGAACAUAGUAGGGACU [hsa-miR-3116]: the percent viability in the data set on MCF10A [1] was determined as 23.8%. In the data set on MCF10A [2], the “5+ nucleoli phenotype percent effect” value was -20.8%. In the data set with MCF10A [3], the “one-nucleolus phenotype percent effect” value was 2.45%.
The matching figures for UGCCUGGGUCUCUGGCCUGCGCGU [hsa-miR-661]: 23%, -18.5% and 23.1%.
The corresponding values for UGCCUUCCUGUCUGUG [hsa-miR-4297] are 20.9%, -10.3% and 16.6%.
On to UGCGACAUUGGAAGUAGUAUCA [hsa-miR-3683], for which the percent viability in the data set on MCF10A [1] amounted to 61.1%. In addition, the “5+ nucleoli phenotype percent effect” value with MCF10A [2] was -3.56%. The “one-nucleolus phenotype percent effect” value in the data set with MCF10A [3] is -0.47%.
The matching figures for UGCGCCUCGGGUGAGCAUG [hsa-miR-668-5p]: 43.2%, 37.3% and -14.2%.
As for UGCGGCAGAGCUGGGGUCA [hsa-miR-6820-5p], the percent viability in the data set on MCF10A [1] is 16.9%. The “5+ nucleoli phenotype percent effect” value in the data set with MCF10A [2] was 3.87%. Further, the “one-nucleolus phenotype percent effect” value with MCF10A [3] amounted to 11.9%.
The corresponding values for UGCGGCCGGUGCUCAACCUGC [hsa-miR-1199-3p] are 22.1%, -6.68% and 23.8%.
The corresponding values for “UGCGGGGACAGGCCAGGGCAUC [hsa-miR-4749-5p]” are 21.9%, -24.9% and 50.5%.
Consider UGCGGGGCUAGGGCUAACAGCA [hsa-miR-744-5p], for which the percent viability with MCF10A [1] was 12%. Also, the “5+ nucleoli phenotype percent effect” value in the data set with MCF10A [2] was -35.1%. Also, the “one-nucleolus phenotype percent effect” value with MCF10A [3] came out at 53.9%.
With UGCGUUUCUCCUCUUGAGCAG [hsa-miR-6854-3p], the percent viability in the data set on MCF10A [1] is 23.5%. Further, the “5+ nucleoli phenotype percent effect” value in the data set with MCF10A [2] is -12.2%. In the data set on MCF10A [3], the “one-nucleolus phenotype percent effect” value was 21.3%.
Take UGCUAGUCUGGACUGAUAUGGU [hsa-miR-8086]: in the data set with MCF10A [1], the percent viability is 31.7%. Moreover, the “5+ nucleoli phenotype percent effect” value in the data set with MCF10A [2] is -8.54%. The “one-nucleolus phenotype percent effect” value in the data set with MCF10A [3] is -8.07%.
Regarding UGCUAUGCCAACAUAUUGCCAU [hsa-miR-31-3p], the percent viability with MCF10A [1] amounted to 34.2%. For the same sequence, the “5+ nucleoli phenotype percent effect” value in the data set with MCF10A [2] is -33.1%. Moreover, in the data set on MCF10A [3], the “one-nucleolus phenotype percent effect” value stood at 27.9%.
